IntAct's records for PubMed 29039417

B1: BBSome complex member BBS5 (Homo sapiens), Q8N3I7 (parent)
chain: MSVLDALWEDRDVRFDLSAQQMKTRPGEVLIDCLDSIEDTKGNNGDRGRLLVTNLRILWHSLALSRVNVSVGYNCILNITTRTANSKLRGQTEALYILTKCNSTRFEFIFTNLVPGSPRLFTSVMAVHRAYETSKMYRDFKLRSALIQNKQLRLLPQEHVYDKINGVWNLSSDQGNLGTFFITNVRIVWHANMNDSFNVSIPYLQIRSIKIRDSKFGLALVIESSQQSGGYVLGFKIDPVEKLQESVKEINSLHKVYSASPIFGVDYEMEEKPQPLEALTVEQIQDDVEIDSDGHTDAFVAYFADGNKQQDREPVFSEELGLAIEKLKDGFTLQGLWEVMS
partner: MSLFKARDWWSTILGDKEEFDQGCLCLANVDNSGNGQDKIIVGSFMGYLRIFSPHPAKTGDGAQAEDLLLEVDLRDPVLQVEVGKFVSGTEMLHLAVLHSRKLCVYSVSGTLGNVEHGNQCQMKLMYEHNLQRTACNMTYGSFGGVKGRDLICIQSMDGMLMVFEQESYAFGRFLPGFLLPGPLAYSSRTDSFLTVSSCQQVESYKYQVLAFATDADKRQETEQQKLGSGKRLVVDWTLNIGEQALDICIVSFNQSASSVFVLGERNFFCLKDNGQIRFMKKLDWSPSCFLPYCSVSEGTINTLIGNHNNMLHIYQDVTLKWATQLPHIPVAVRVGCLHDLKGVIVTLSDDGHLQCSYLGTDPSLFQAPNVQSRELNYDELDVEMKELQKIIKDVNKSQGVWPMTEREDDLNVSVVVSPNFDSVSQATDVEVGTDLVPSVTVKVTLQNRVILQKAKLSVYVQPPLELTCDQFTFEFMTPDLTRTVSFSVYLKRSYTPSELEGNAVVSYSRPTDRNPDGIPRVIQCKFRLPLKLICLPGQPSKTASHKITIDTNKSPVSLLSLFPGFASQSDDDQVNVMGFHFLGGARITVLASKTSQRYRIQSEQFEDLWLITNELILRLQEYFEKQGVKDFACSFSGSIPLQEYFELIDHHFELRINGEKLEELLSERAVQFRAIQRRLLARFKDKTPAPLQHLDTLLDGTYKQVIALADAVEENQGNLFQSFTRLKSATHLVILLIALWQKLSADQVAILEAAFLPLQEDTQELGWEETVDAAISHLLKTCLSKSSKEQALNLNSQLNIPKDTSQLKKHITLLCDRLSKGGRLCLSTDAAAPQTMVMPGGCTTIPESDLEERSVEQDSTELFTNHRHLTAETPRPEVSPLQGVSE

Variants of: B1
Settings: with pthb1_human BBS9, Q3SYG4
For T122K, the “effect of a mutation on the interaction” value was “with no effect”. T122A was tested, and the “effect of a mutation on the interaction” value was “with no effect”. T122E was tested, and the “effect of a mutation on the interaction” value was “with no effect”. With F108K the “effect of a mutation on the interaction” value was “with no effect”. With F108A the “effect of a mutation on the interaction” value was “with no effect”. With F108E the “effect of a mutation on the interaction” value was “disrupting interaction strength”. R129E was tested, and the “effect of a mutation on the interaction” value was “with no effect”. With R129K the “effect of a mutation on the interaction” value was “with no effect”. For R129A, the “effect of a mutation on the interaction” value was “with no effect”. With Q151E the “effect of a mutation on the interaction” value was “with no effect”. For Q151K, the “effect of a mutation on the interaction” value was “with no effect”. In the case of Q151A, the “effect of a mutation on the interaction” value is reported as “with no effect”. E93A was tested, and the “effect of a mutation on the interaction” value was “with no effect”. In the case of E93K, the “effect of a mutation on the interaction” value is reported as “with no effect”. With H128A the “effect of a mutation on the interaction” value was “with no effect”. H128K was tested, and the “effect of a mutation on the interaction” value was “with no effect”. In the case of H128E, the “effect of a mutation on the interaction” value is reported as “with no effect”. G116K was tested, and the “effect of a mutation on the interaction” value was “with no effect”. For G116E, the “effect of a mutation on the interaction” value was “with no effect”. In the case of G116A, the “effect of a mutation on the interaction” value is reported as “with no effect”. With I147K the “effect of a mutation on the interaction” value was “with no effect”. In the case of I147E, the “effect of a mutation on the interaction” value is reported as “with no effect”. I147A was tested, and the “effect of a mutation on the interaction” value was “with no effect”. In the case of F121A, the “effect of a mutation on the interaction” value is reported as “with no effect”. F121E was tested, and the “effect of a mutation on the interaction” value was “with no effect”. In the case of F121K, the “effect of a mutation on the interaction” value is reported as “with no effect”. With E132A the “effect of a mutation on the interaction” value was “with no effect”. For E132K, the “effect of a mutation on the interaction” value was “with no effect”. With K141A the “effect of a mutation on the interaction” value was “with no effect”. With K141E the “effect of a mutation on the interaction” value was “with no effect”. With V127A the “effect of a mutation on the interaction” value was “with no effect”. V127E was tested, and the “effect of a mutation on the interaction” value was “with no effect”. For V127K, the “effect of a mutation on the interaction” value was “with no effect”. In the case of R153K, the “effect of a mutation on the interaction” value is reported as “with no effect”. For R153A, the “effect of a mutation on the interaction” value was “with no effect”. For R153E, the “effect of a mutation on the interaction” value was “with no effect”. With L95K the “effect of a mutation on the interaction” value was “with no effect”. In the case of L95A, the “effect of a mutation on the interaction” value is reported as “with no effect”. For L95E, the “effect of a mutation on the interaction” value was “disrupting interaction strength”. With K150E the “effect of a mutation on the interaction” value was “with no effect”. For K150A, the “effect of a mutation on the interaction” value was “with no effect”. For A94E, the “effect of a mutation on the interaction” value was “with no effect”. For A94K, the “effect of a mutation on the interaction” value was “with no effect”. With K135A the “effect of a mutation on the interaction” value was “with no effect”. With K135E the “effect of a mutation on the interaction” value was “with no effect”. For S144K, the “effect of a mutation on the interaction” value was “with no effect”. With S144E the “effect of a mutation on the interaction” value was “with no effect”. S144A was tested, and the “effect of a mutation on the interaction” value was “with no effect”. With R105A the “effect of a mutation on the interaction” value was “with no effect”. With R105K the “effect of a mutation on the interaction” value was “with no effect”. In the case of R105E, the “effect of a mutation on the interaction” value is reported as “with no effect”. In the case of F140A, the “effect of a mutation on the interaction” value is reported as “with no effect”. In the case of F140K, the “effect of a mutation on the interaction” value is reported as “with no effect”. In the case of F140E, the “effect of a mutation on the interaction” value is reported as “with no effect”. P118E was tested, and the “effect of a mutation on the interaction” value was “with no effect”. With P118K the “effect of a mutation on the interaction” value was “with no effect”. P118A was tested, and the “effect of a mutation on the interaction” value was “with no effect”. In the case of F106K, the “effect of a mutation on the interaction” value is reported as “with no effect”. In the case of F106A, the “effect of a mutation on the interaction” value is reported as “with no effect”. F106E was tested, and the “effect of a mutation on the interaction” value was “with no effect”. For V124K, the “effect of a mutation on the interaction” value was “disrupting interaction strength”. With V124A the “effect of a mutation on the interaction” value was “with no effect”. V124E was tested, and the “effect of a mutation on the interaction” value was “with no effect”. For K100A, the “effect of a mutation on the interaction” value was “with no effect”. For K100E, the “effect of a mutation on the interaction” value was “with no effect”. S117K was tested, and the “effect of a mutation on the interaction” value was “with no effect”. In the case of S117E, the “effect of a mutation on the interaction” value is reported as “with no effect”. With S117A the “effect of a mutation on the interaction” value was “with no effect”. In the case of L142E, the “effect of a mutation on the interaction” value is reported as “with no effect”. For L142K, the “effect of a mutation on the interaction” value was “with no effect”. L142A was tested, and the “effect of a mutation on the interaction” value was “with no effect”. For I109K, the “effect of a mutation on the interaction” value was “with no effect”. In the case of I109A, the “effect of a mutation on the interaction” value is reported as “with no effect”. I109E was tested, and the “effect of a mutation on the interaction” value was “with no effect”. In the case of R119A, the “effect of a mutation on the interaction” value is reported as “with no effect”. For R119K, the “effect of a mutation on the interaction” value was “with no effect”. R119E was tested, and the “effect of a mutation on the interaction” value was “with no effect”. In the case of Y96K, the “effect of a mutation on the interaction” value is reported as “with no effect”. Y96E was tested, and the “effect of a mutation on the interaction” value was “with no effect”. In the case of Y96A, the “effect of a mutation on the interaction” value is reported as “with no effect”. For N102A, the “effect of a mutation on the interaction” value was “with no effect”. N102E was tested, and the “effect of a mutation on the interaction” value was “with no effect”. For N102K, the “effect of a mutation on the interaction” value was “with no effect”. In the case of L146E, the “effect of a mutation on the interaction” value is reported as “with no effect”. With L146K the “effect of a mutation on the interaction” value was “with no effect”. For L146A, the “effect of a mutation on the interaction” value was “with no effect”. For P115E, the “effect of a mutation on the interaction” value was “with no effect”. For P115A, the “effect of a mutation on the interaction” value was “with no effect”. P115K was tested, and the “effect of a mutation on the interaction” value was “with no effect”. N112E was tested, and the “effect of a mutation on the interaction” value was “with no effect”. For N112A, the “effect of a mutation on the interaction” value was “with no effect”. In the case of N112K, the “effect of a mutation on the interaction” value is reported as “with no effect”.
